Patent US20030229005A1

Assays:
Assay in all cases: cell-based or functional assay
[1] = target: human Gelatinase-A (human) (UniProt P08253)
[2] = target: human Collagenase-3 (human) (UniProt P45452)
[3] = target: gelatinase B (UniProt P14780)
gelatinase B, sequence (P14780 107-707 limits assumed): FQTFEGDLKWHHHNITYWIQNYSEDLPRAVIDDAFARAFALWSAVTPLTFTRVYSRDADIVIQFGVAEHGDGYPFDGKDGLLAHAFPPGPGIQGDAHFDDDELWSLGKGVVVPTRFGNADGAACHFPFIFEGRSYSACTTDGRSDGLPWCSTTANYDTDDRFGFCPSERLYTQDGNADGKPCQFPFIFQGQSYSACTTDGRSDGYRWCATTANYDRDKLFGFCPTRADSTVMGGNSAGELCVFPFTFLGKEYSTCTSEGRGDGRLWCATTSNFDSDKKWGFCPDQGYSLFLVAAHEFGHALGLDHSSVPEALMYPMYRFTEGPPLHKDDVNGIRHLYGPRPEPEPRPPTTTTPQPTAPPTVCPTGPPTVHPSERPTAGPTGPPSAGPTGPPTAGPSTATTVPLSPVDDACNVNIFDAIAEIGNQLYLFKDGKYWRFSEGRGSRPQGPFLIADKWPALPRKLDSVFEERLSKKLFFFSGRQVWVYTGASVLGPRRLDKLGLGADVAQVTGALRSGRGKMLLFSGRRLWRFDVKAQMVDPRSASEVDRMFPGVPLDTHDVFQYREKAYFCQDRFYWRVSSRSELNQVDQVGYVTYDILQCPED

human Gelatinase-A (human), sequence (P08253 110-660 limits assumed): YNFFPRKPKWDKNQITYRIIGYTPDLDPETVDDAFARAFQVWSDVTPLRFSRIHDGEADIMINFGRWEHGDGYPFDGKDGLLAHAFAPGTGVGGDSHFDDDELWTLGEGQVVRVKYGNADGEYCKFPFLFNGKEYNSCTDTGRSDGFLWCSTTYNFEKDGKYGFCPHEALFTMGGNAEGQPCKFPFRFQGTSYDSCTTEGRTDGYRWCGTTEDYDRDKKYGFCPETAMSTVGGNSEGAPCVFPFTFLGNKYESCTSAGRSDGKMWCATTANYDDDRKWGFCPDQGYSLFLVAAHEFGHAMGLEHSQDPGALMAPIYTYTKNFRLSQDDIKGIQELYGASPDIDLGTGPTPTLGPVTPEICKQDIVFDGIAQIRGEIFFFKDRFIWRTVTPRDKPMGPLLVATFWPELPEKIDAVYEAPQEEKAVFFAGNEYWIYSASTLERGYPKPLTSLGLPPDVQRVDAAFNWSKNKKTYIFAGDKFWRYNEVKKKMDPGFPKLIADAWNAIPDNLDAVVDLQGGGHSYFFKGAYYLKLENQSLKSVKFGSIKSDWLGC

bovine type II collagen (from UniProt P02459 182-1241)
Average Percent Inhibition, 2.10-3.10 h, TypeIICOL 44 ug/ul [1]: 86%
Average Percent Inhibition, 2.10-3.10 h, TypeIICOL .18 ug/ul [1]: 7%
Average Percent Inhibition, 2.10-3.10 h, TypeIICOL .55 ug/ul [1]: 12%
Average Percent Inhibition, 3.10-4.10 h, TypeIICOL 1.6 ug/ul [1]: -37%
Average Percent Inhibition, 3.10-4.10 h, TypeIICOL 4.9 ug/ul [1]: 37%
Average Percent Inhibition, 3.10-4.10 h, TypeIICOL 15 ug/ul [1]: 64%
Average Percent Inhibition, 3.10-4.10 h, TypeIICOL 44 ug/ul [1]: 87%
Average Percent Inhibition, 3.10-4.10 h, TypeIICOL .18 ug/ul [1]: 3%
Average Percent Inhibition, 3.10-4.10 h, TypeIICOL .55 ug/ul [1]: 8%
Average Percent Inhibition, 4.10-5.10 h, TypeIICOL 1.6 ug/ul [1]: -68%
Average Percent Inhibition, 4.10-5.10 h, TypeIICOL 4.9 ug/ul [1]: 27%
Average Percent Inhibition, 4.10-5.10 h, TypeIICOL 15 ug/ul [1]: 53%
Average Percent Inhibition, 4.10-5.10 h, TypeIICOL 44 ug/ul [1]: 85%
Average Percent Inhibition, 4.10-5.10 h, TypeIICOL .18 ug/ul [1]: 0%
Average Percent Inhibition, 4.10-5.10 h, TypeIICOL .55 ug/ul [1]: 4%
Average Percent Inhibition, 5.10-6.10 h, TypeIICOL 1.6 ug/ul [1]: -104%
Average Percent Inhibition, 5.10-6.10 h, TypeIICOL 4.9 ug/ul [1]: 19%
Average Percent Inhibition, 5.10-6.10 h, TypeIICOL 15 ug/ul [1]: 41%
Average Percent Inhibition, 5.10-6.10 h, TypeIICOL 44 ug/ul [1]: 82%
Average Percent Inhibition, 5.10-6.10 h, TypeIICOL .18 ug/ul [1]: -3%
Average Percent Inhibition, 5.10-6.10 h, TypeIICOL .55 ug/ul [1]: -1%
Average Percent Inhibition from 1.1 to 6.6 Hours, Type II Collagen 0.18 ug/ml [2]: -8%
Average Percent Inhibition from 1.1 to 6.6 Hours, Type II Collagen 0.54 ug/ml [2]: -11%
Average Percent Inhibition from 1.1 to 6.6 Hours, Type II Collagen 1.63 ug/ml [2]: -11%
Average Percent Inhibition from 1.1 to 6.6 Hours, Type II Collagen 4.89 ug/ml [2]: -28%
Average Percent Inhibition from 1.1 to 6.6 Hours, Type II Collagen 14.67 ug/ml [2]: -44%
Average Percent Inhibition from 1.1 to 6.6 Hours, Type II Collagen 44.00 ug/ml [2]: -53%
Average Percent Inhibition, 0.10-1.10 h, TypeIICOL 1.6 ug/ul [2]: 16%
Average Percent Inhibition, 0.10-1.10 h, TypeIICOL 4.9 ug/ul [2]: 8%
Average Percent Inhibition, 0.10-1.10 h, TypeIICOL 15 ug/ul [2]: 6%
Average Percent Inhibition, 0.10-1.10 h, TypeIICOL 44 ug/ul [2]: 2%
Average Percent Inhibition, 0.10-1.10 h, TypeIICOL .18 ug/ul [2]: 6%
Average Percent Inhibition, 0.10-1.10 h, TypeIICOL .55 ug/ul [2]: 14%
Average Percent Inhibition, 1.10-2.10 h, TypeIICOL 1.6 ug/ul [2]: -4%
Average Percent Inhibition, 1.10-2.10 h, TypeIICOL 4.9 ug/ul [2]: -31%
Average Percent Inhibition, 1.10-2.10 h, TypeIICOL 15 ug/ul [2]: -48%
Average Percent Inhibition, 1.10-2.10 h, TypeIICOL 44 ug/ul [2]: -55%
Average Percent Inhibition, 1.10-2.10 h, TypeIICOL .18 ug/ul [2]: -9%
Average Percent Inhibition, 1.10-2.10 h, TypeIICOL .55 ug/ul [2]: -11%
Average Percent Inhibition, 2.10-3.10 h, TypeIICOL 1.6 ug/ul [2]: -15%
Average Percent Inhibition, 2.10-3.10 h, TypeIICOL 4.9 ug/ul [2]: -38%
Average Percent Inhibition, 2.10-3.10 h, TypeIICOL 15 ug/ul [2]: -59%
Average Percent Inhibition, 2.10-3.10 h, TypeIICOL 44 ug/ul [2]: -71%
Average Percent Inhibition, 2.10-3.10 h, TypeIICOL .18 ug/ul [2]: -10%
Average Percent Inhibition, 2.10-3.10 h, TypeIICOL .55 ug/ul [2]: -15%
Average Percent Inhibition, 3.10-4.10 h, TypeIICOL 1.6 ug/ul [2]: -13%
Average Percent Inhibition, 3.10-4.10 h, TypeIICOL 4.9 ug/ul [2]: -31%
Average Percent Inhibition, 3.10-4.10 h, TypeIICOL 15 ug/ul [2]: -50%
Average Percent Inhibition, 3.10-4.10 h, TypeIICOL 44 ug/ul [2]: -60%
Average Percent Inhibition, 3.10-4.10 h, TypeIICOL .18 ug/ul [2]: -8%
Average Percent Inhibition, 3.10-4.10 h, TypeIICOL .55 ug/ul [2]: -12%
Average Percent Inhibition, 4.10-5.10 h, TypeIICOL 1.6 ug/ul [2]: -12%
Average Percent Inhibition, 4.10-5.10 h, TypeIICOL 4.9 ug/ul [2]: -25%
Average Percent Inhibition, 4.10-5.10 h, TypeIICOL 15 ug/ul [2]: -41%
Average Percent Inhibition, 4.10-5.10 h, TypeIICOL 44 ug/ul [2]: -49%
Average Percent Inhibition, 4.10-5.10 h, TypeIICOL .18 ug/ul [2]: -7%
Average Percent Inhibition, 4.10-5.10 h, TypeIICOL .55 ug/ul [2]: -10%
Average Percent Inhibition, 5.10-6.10 h, TypeIICOL 1.6 ug/ul [2]: -11%
Average Percent Inhibition, 5.10-6.10 h, TypeIICOL 4.9 ug/ul [2]: -21%
Average Percent Inhibition, 5.10-6.10 h, TypeIICOL 15 ug/ul [2]: -34%
Average Percent Inhibition, 5.10-6.10 h, TypeIICOL 44 ug/ul [2]: -41%
Average Percent Inhibition, 5.10-6.10 h, TypeIICOL .18 ug/ul [2]: -6%
Average Percent Inhibition, 5.10-6.10 h, TypeIICOL .55 ug/ul [2]: -10%
Average Percent Inhibition from 1.1 to 6.6 Hours, Type II Collagen 0.18 ug/ml [3]: 9%
Average Percent Inhibition from 1.1 to 6.6 Hours, Type II Collagen 0.54 ug/ml [3]: 9%
Average Percent Inhibition from 1.1 to 6.6 Hours, Type II Collagen 1.63 ug/ml [3]: 12%
Average Percent Inhibition from 1.1 to 6.6 Hours, Type II Collagen 4.89 ug/ml [3]: 38%
Average Percent Inhibition from 1.1 to 6.6 Hours, Type II Collagen 14.67 ug/ml [3]: 65%
Average Percent Inhibition from 1.1 to 6.6 Hours, Type II Collagen 44.00 ug/ml [3]: 84%
Average Percent Inhibition, 0.10-1.10 h, TypeIICOL 1.6 ug/ul [3]: -28%
Average Percent Inhibition, 0.10-1.10 h, TypeIICOL 4.9 ug/ul [3]: 35%
Average Percent Inhibition, 0.10-1.10 h, TypeIICOL 15 ug/ul [3]: 57%
Average Percent Inhibition, 0.10-1.10 h, TypeIICOL 44 ug/ul [3]: 41%
Average Percent Inhibition, 0.10-1.10 h, TypeIICOL .18 ug/ul [3]: 3%
Average Percent Inhibition, 0.10-1.10 h, TypeIICOL .55 ug/ul [3]: 3%
Average Percent Inhibition, 1.10-2.10 h, TypeIICOL 1.6 ug/ul [3]: 14%
Average Percent Inhibition, 1.10-2.10 h, TypeIICOL 4.9 ug/ul [3]: 43%
Average Percent Inhibition, 1.10-2.10 h, TypeIICOL 15 ug/ul [3]: 67%
Average Percent Inhibition, 1.10-2.10 h, TypeIICOL 44 ug/ul [3]: 82%
Average Percent Inhibition, 1.10-2.10 h, TypeIICOL .18 ug/ul [3]: 12%
Average Percent Inhibition, 1.10-2.10 h, TypeIICOL .55 ug/ul [3]: 10%
Average Percent Inhibition, 2.10-3.10 h, TypeIICOL 1.6 ug/ul [3]: 19%
Average Percent Inhibition, 2.10-3.10 h, TypeIICOL 4.9 ug/ul [3]: 47%
Average Percent Inhibition, 2.10-3.10 h, TypeIICOL 15 ug/ul [3]: 72%
Average Percent Inhibition, 2.10-3.10 h, TypeIICOL 44 ug/ul [3]: 87%
Average Percent Inhibition, 2.10-3.10 h, TypeIICOL .18 ug/ul [3]: 11%
Average Percent Inhibition, 2.10-3.10 h, TypeIICOL .55 ug/ul [3]: 12%
Average Percent Inhibition, 3.10-4.10 h, TypeIICOL 1.6 ug/ul [3]: 15%
Average Percent Inhibition, 3.10-4.10 h, TypeIICOL 4.9 ug/ul [3]: 41%
Average Percent Inhibition, 3.10-4.10 h, TypeIICOL 15 ug/ul [3]: 69%
Average Percent Inhibition, 3.10-4.10 h, TypeIICOL 44 ug/ul [3]: 87%
Average Percent Inhibition, 3.10-4.10 h, TypeIICOL .18 ug/ul [3]: 9%
Average Percent Inhibition, 3.10-4.10 h, TypeIICOL .55 ug/ul [3]: 10%
Average Percent Inhibition, 4.10-5.10 h, TypeIICOL 1.6 ug/ul [3]: 11%
Average Percent Inhibition, 4.10-5.10 h, TypeIICOL 4.9 ug/ul [3]: 35%
Average Percent Inhibition, 4.10-5.10 h, TypeIICOL 15 ug/ul [3]: 64%
Average Percent Inhibition, 4.10-5.10 h, TypeIICOL 44 ug/ul [3]: 85%
Average Percent Inhibition, 4.10-5.10 h, TypeIICOL .18 ug/ul [3]: 7%
Average Percent Inhibition, 4.10-5.10 h, TypeIICOL .55 ug/ul [3]: 8%
Average Percent Inhibition, 5.10-6.10 h, TypeIICOL 1.6 ug/ul [3]: 7%
Average Percent Inhibition, 5.10-6.10 h, TypeIICOL 4.9 ug/ul [3]: 30%
Average Percent Inhibition, 5.10-6.10 h, TypeIICOL 15 ug/ul [3]: 59%
Average Percent Inhibition, 5.10-6.10 h, TypeIICOL 44 ug/ul [3]: 83%
Average Percent Inhibition, 5.10-6.10 h, TypeIICOL .18 ug/ul [3]: 5%
Average Percent Inhibition, 5.10-6.10 h, TypeIICOL .55 ug/ul [3]: 6%
